Results published in patent US10087225B2, “Formulation of MK2 inhibitor peptides” (MOERAE MATRIX, INC., priority 2015, dated 2018).

Key:
Test in all cases: Kinase Profiling Assay
Assay type in all cases: biochemical
Conditions in all cases: 100 μM
[1] = molecular target: T1, SGK2(h) (Homo sapiens, UniProt Q9HBY8)
T1 sequence (Q9HBY8 1-367): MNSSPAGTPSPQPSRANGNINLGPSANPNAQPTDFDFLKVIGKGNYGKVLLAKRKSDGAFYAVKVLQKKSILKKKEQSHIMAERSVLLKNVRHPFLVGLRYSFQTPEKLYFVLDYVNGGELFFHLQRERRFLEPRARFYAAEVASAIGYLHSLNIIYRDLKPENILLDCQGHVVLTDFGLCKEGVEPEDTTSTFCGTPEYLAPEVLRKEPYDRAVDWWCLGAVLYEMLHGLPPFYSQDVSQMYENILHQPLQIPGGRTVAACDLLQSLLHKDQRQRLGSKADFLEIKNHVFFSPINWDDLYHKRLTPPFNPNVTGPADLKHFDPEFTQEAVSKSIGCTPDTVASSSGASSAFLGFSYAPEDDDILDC

[2] = molecular target: Plk3(h) (Homo sapiens, UniProt Q9H4B4)
[3] = molecular target: JNK2α2(h) (Homo sapiens, UniProt P45984)
[4] = molecular target: LIMK1(h) (Homo sapiens, UniProt P53667)
[5] = molecular target: T2, SAPK4(h) (Homo sapiens, UniProt O15264)
T2 sequence (O15264 1-365): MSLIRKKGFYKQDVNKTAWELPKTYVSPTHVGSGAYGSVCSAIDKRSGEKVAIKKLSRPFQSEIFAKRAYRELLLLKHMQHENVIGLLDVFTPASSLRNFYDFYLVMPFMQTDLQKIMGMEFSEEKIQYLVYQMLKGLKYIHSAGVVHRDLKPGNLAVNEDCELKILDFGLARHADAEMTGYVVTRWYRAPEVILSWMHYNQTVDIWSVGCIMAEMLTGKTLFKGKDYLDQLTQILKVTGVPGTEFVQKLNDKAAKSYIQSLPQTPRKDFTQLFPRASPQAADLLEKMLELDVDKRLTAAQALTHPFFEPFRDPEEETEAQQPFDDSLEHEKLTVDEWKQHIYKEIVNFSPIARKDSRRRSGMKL

LIMK1(h), sequence (P53667 whole entry): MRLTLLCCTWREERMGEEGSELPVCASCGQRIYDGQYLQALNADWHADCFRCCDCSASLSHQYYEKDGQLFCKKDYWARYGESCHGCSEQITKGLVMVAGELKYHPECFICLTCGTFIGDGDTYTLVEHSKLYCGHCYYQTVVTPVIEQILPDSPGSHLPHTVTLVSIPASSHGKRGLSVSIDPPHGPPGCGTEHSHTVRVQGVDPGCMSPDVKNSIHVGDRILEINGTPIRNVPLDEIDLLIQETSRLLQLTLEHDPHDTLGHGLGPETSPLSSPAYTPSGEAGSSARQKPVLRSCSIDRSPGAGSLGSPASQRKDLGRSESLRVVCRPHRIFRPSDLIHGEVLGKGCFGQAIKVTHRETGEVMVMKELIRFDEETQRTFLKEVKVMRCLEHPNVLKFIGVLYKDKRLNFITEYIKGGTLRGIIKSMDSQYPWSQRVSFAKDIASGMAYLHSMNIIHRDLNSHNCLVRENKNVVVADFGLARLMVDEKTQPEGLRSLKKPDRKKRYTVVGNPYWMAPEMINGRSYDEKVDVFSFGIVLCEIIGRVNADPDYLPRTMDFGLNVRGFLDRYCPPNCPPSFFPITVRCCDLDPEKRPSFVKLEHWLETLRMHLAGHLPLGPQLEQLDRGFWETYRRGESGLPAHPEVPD
Plk3(h), sequence (Q9H4B4 whole entry): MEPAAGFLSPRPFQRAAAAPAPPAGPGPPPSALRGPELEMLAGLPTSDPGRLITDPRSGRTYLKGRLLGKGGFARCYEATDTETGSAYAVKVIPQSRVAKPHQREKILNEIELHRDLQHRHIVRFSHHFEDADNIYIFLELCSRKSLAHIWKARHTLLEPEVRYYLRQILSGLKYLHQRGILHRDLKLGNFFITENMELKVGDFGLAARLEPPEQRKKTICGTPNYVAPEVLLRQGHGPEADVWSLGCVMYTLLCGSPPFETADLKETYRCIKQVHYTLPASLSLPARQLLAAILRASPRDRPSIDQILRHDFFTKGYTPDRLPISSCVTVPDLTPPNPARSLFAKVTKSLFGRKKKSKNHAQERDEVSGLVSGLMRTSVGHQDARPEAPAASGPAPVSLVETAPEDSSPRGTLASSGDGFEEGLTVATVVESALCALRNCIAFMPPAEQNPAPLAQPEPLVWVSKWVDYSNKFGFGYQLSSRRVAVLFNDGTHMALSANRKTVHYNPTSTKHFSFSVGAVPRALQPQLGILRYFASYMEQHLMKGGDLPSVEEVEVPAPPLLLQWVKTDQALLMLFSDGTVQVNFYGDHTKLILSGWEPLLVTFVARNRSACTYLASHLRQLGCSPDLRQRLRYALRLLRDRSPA

Sequence: HRRIKAWLKKIKALARQLGVAA (Mammalian) [MMI-0500]
- % activity [1]: -1%
- % activity [2]: 122%
- % activity [3]: 81%
- % activity [4]: 87%
- % activity [5]: 48%
